From patent US12365905B2, “Host cells and methods for reducing isoprenoid precursors and isoprenoids by geranylgeranyl reductase” (The Regents of the University of California, priority 2018, dated 2025)

Key:
Format in all cases: biochemical
[1] = In vitro GGR reduction of geranylgeranyl pyrophosphate, products detected by LC-MS-TOF; set-up: key to GGPP (C20) reduction: +: activity detected; ++: activity higher than for other GGRs
Procedure: (§1) Validation of enzymatic substrate reduction was determined by incubating all assays in triplicate for each respective substrate and putative GGR for 1 hour at 37° C. All assays were performed at pH 7.4 in 100 mM sodium phosphate buffer containing 30-150 μM enzyme, 200 µM FAD (Sigma-Aldrich), and 65 mM sodium dithionite (Sigma-Aldrich). Standard assays for alcohol reduction were incubated with 100 μM enzyme and 500 μM (E,E)-farnesol (Alfa-Aesar) or (E,E,E)-geranylgeraniol (Sigma-Aldrich); pyrophosphate assays were performed at 100 μM FPP or GGPP (Sigma-Aldrich). Alcohol-based assays were quenched by liquid extraction using a 3:1 (v:v) LC-grade ethyl acetate solution containing 100 μM dodecanol as a GC internal standard (Sigma-Aldrich). The organic layer was extracted and stored at −20° C. until analysis by GC-MS. Pyrophosphate assays were similarly quenched using LC-grade n-butanol (Sigma-Aldrich) 1:1 (v:v) and centrifuged at 15000×g for 2 minutes. The n-butanol layer was dried for 45 minutes at ambient temperature using a Labconco speedvac, reconstituted in 25 µL of a 62:38 (v:v) acetonitrile/50 mM ammonium carbonate solution, and stored at −20° C. until further analysis by LC-MS-TOF [33]. Characterization of enzymatic hydrolysis of isoprenoid pyrophosphate substrates by SaGGR and PfGGR was performed by quenching the enzyme reactions at 0, 2, 5, 10, 20, 40, and 60 minutes of incubation.
The separation of FPP, GGPP, and their reduced forms was conducted on a ZIC-pHILIC column (150 mm length, 2.1 mm internal diameter, and 5 μm particle size, Merck) using an Agilent Technologies 1200 Series Rapid Resolution high performance liquid chromatography (HPLC) system. Solvents for HPLC were purchased from HoneyWell and were of HPLC grade or higher. The mobile phases used for this analysis were A) 50 mM ammonium carbonate (Fluka, 30-33% NH3 basis) in water and B) acetonitrile. Analytes were eluted isocratically with a mobile phase composition of 62% B at a flow rate of 0.2 mL/min. The total run time of the method was 6.5 min. The temperature of the sample tray was maintained at 6° C. using an Agilent FC/ALS Thermostat. […]
(§2) Data acquisition and processing were performed by the Agilent Technologies MassHunter software package. Product formation was determined using extracted ion chromatogram abundances (±0.02 Da) for each molecule's [M-H]^− mass (Table 4). […] Relative reductase reactivity among GGRs was determined by measuring the fractional abundance of singly-, doubly-, or triply-reduced products to the total ion abundance present for intact and hydrolyzed moieties. Integrated areas for hydrolyzed monophosphate products were assumed to have the same ionization intensities as their pyrophosphate counterparts, as determined by their standard curves measured from 0-120 μM (FIG. 15).

[2] = In vitro GGR reduction of geranylgeraniol, products analysed by GC-MS; set-up: key to Geranylgeraniol (C20) reduction: +: activity detected; ++: activity higher than for other GGRs
Procedure: as §1
(§3) Product identification and quantification of farnesol and hydrofarnesol derivatives were modified from previous detection methods. All GC-MS analyses were determined using an Agilent 6890 gas chromatography instrument coupled to an Agilent 5973 mass selective detector. 1 µL of extracted samples were injected in splitless mode onto an Agilent CycloSil-B column, with helium used as a carrier gas flowing at 1.0 mL/min. Following injection, the oven was held at 50° C. for 30 seconds, then increased to 175° C. at 35° C./min. Farnesol and hydrofarnesols were resolved by increasing the temperature 4° C./min up to 200° C., then increased to 300° C. at a rate of 35° C./min where it was held for 1.5 minutes. Geranylgeraniol and its hydrogenated derivatives were analyzed using the same injection method. After injection, the oven was held at 50° C. for 30 seconds then increased to 235° C. at 35° C./min. Hydrogeranylgeraniols were separated by increasing the oven temperature 4° C./min to 250° C., then ramped to 300° C. at a rate of 35° C./min where it was held for 1.5 minutes.
(§4) The EI-MS detection was initiated after a solvent delay of 5.0 minutes. Detection and classification of hydrofarnesols was performed in scan mode at 9.8 scans/sec ranging from 50-250 m/z in positive ion mode. For geranylgeraniol, the same scan parameters were implemented except for the mass range, which was expanded to 50-300 m/z in positive ion mode. The electron multiplier voltage was set to a gain factor of 1, with the MS ion source and quadrupole set to 230° C. and 150° C., respectively.
(§5) Total ion chromatograms (TIC) were integrated using Agilent Technologies Masshunter software, version 6. Product formation was determined from the TIC area for C15 or C20 alcohol products eluting at each respective retention time. Absolute product concentrations were determined from standard curves (0-200 μM) of either farnesol or geranylgeraniol assuming the TIC area of each reduced product ionizes with an equivalent efficiency to that of the unreduced substrate (FIG. 10). Subsequently, enzyme turnover numbers for isoprenoid reduction were calculated as the total number of nanomoles of prenyl units reduced per milligram of enzyme in 1 hr.

[3] = GGR reduction of geranyl pyrophosphate; set-up: key to GPP (C10) reduction: +: activity detected; ++: activity higher than for other GGRs
[4] = GGR reduction of geraniol; settings: FIG. 1A legend, conditions not stated
[5] = GGR-mediated hydrolysis of prenyl pyrophosphates to monophosphates, time course by LC-MS-TOF; settings: standard assay as a function of time, 0-60 minutes
Procedure: Validation of enzymatic substrate reduction was determined by incubating all assays in triplicate for each respective substrate and putative GGR for 1 hour at 37° C. All assays were performed at pH 7.4 in 100 mM sodium phosphate buffer containing 30-150 μM enzyme, 200 µM FAD (Sigma-Aldrich), and 65 mM sodium dithionite (Sigma-Aldrich). Standard assays for alcohol reduction were incubated with 100 μM enzyme and 500 μM (E,E)-farnesol (Alfa-Aesar) or (E,E,E)-geranylgeraniol (Sigma-Aldrich); pyrophosphate assays were performed at 100 μM FPP or GGPP (Sigma-Aldrich). […]
as §2

[6] = In vitro GGR reduction of farnesyl pyrophosphate, products detected by LC-MS-TOF; set-up: key to FPP (C15) reduction: +: activity detected; ++: activity higher than for other GGRs
Procedure: as §1, with “[…] […]” for “Validation of enzymatic substrate reduction was determined by incubating all assays in triplicate for each respective substrate and putative GGR for 1 hour at 37° C. All assays were performed at pH 7.4 in 100 mM sodium phosphate buffer containing 30-150 μM enzyme, 200 µM FAD (Sigma-Aldrich), and 65 mM sodium dithionite (Sigma-Aldrich).”
The separation of FPP, GGPP, and their reduced forms was conducted on a ZIC-pHILIC column (150 mm length, 2.1 mm internal diameter, and 5 μm particle size, Merck) using an Agilent Technologies 1200 Series Rapid Resolution high performance liquid chromatography (HPLC) system. Solvents for HPLC were purchased from HoneyWell and were of HPLC grade or higher. The mobile phases used for this analysis were A) 50 mM ammonium carbonate (Fluka, 30-33% NH3 basis) in water and B) acetonitrile. Analytes were eluted isocratically with a mobile phase composition of 62% B at a flow rate of 0.2 mL/min. The total run time of the method was 6.5 min. The temperature of the sample tray was maintained at 6° C. using an Agilent FC/ALS Thermostat. The column compartment was set to 40° C. A sample injection volume of 2 μL was used throughout.
The HPLC system was coupled to an Agilent Technologies 6210 time-of-flight mass spectrometer (LC-TOF-MS) by a ⅓post-column split. Contact between both instrument set-ups was established using a LAN card in order to trigger the MS into operation upon the initiation of a run cycle from the MassHunter workstation (Agilent Technologies). Electrospray ionization (ESI) was conducted in the negative ion mode and a capillary voltage of −3500 V was utilized. MS experiments were carried out in full scan mode, at 0.86 spectra/second for the detection of [M-H]^− ions. The instrument was tuned for a range of 50-1700 m/z. Prior to LC-TOF-MS analysis, the TOF-MS was calibrated via an ESI-L low concentration tuning mix (Agilent Technologies).
as §2

[7] = In vitro GGR reduction of farnesol, products analysed by GC-MS; set-up: key to Farnesol (C15) reduction / Farnesol (C15)-full reduction: +: activity detected; ++: activity higher than for other GGRs
Procedure: as §1, with “triplicate for each respective substrate and putative GGR for 1 hour at 37° C. All assays were performed at pH 7.4 in 100 mM sodium phosphate” left out
as §3, §4, §5

[8] = FIG. 1A legend, conditions not stated
[9] = 1 hr, 37° C., pH 7.4, error in brackets

B1: Sa-GGR: geranylgeranyl reductase from Sulfolobus acidocaldarius, InterPro M1I414, wild type (protein, listed as Sulfolobus acidocaldarius)
chain: MKELKYDVLIIGGGFAGSSAAYQLSRRGLKILLVDSKPWNRIGDKPCGDAVSKAHFDKLGMPYPKGEELENKINGIKLYSPDMQTVWTVNGEGFELNAPLYNQRVLKEAQDRGVEIWDLTTAMKPIFEDGYVKGAVLFNRRTNEELTVYSKVVVEATGYSRSFRSKLPPELPITEDLDDKDADVAYREVLLTKEDIEDHDYLRIFIDQETSPGGYWWYFPKGKNKVNVGLGIQGGMGYPSIHEYYKKYLDKYAPDVDKSKLLVKGGALVPTRRPLYTMAWNGIIVIGDSGFTVNPVHGGGKGSAMISGYCAAKAILSAFETGDFSASGLWDMNICYVNEYGAKQASLDIFRRFLQKLSNDDINYGMKKKIIKEEDLLEASEKGDLHLSVADKAMRVISGLGRPSLLFKLKAVAESMKKIKELYLNYPRSPSSLGSWRREVDNVLTEFNKSLS
- GGPP (C20) reduction [1]: +
- Product of GGPP reduction [1, 8]: H6-GGPP
- Geranylgeraniol (C20) reduction [2]: +
- Reduced products formed from geranylgeraniol ([2]; 1 hour 37° C., pH 7.4): H2-, H4-, H6- and H8-geranylgeraniol
- Specific activity of enzymatic GGR reduction on geranylgeraniol (GGOH) [2, 9]: 50 (10) nmol terpene units reduced mg^−1 enzyme hr^−1
- Product of complete reduction of geranylgeraniol [2, 8]: H8-GGOH
- Enzymatic reduction of geranylgeraniol (in words) ([2]; standard assay, 1 hr, 37° C., pH 7.4): enzymatically reduce geranylgeraniol
- Specific activity toward GGOH ([2]; standard assay, stated as lower bound): at least 50±10 nmol terpenoids reduced per milligram of enzyme per hour
- GPP (C10) reduction [3]: +
- Product of GPP reduction [3, 8]: H2-GPP
- Product of complete reduction of geraniol [4]: H4-GOH
- Rate of first-order substrate hydrolysis, comparison [5]: occurs more quickly in SaGGR than for PfGGR
- FPP (C15) reduction [6]: +
- Product of FPP reduction [6, 8]: H4-FPP
- Preferential / final product of FPP reduction ([6]; SaGGR variants, pH 5.5, 50° C., kinetic time course): H4-FPP
- FPP consumption ([6]; after two hours of incubation at pH 5.5, 50° C.): fully consume FPP
- Reduction of FPP (in words) ([6]; standard assay conditions): could reduce FPP
- Farnesol (C15) reduction [7]: +
- Farnesol (C15)-full reduction [7]: +
- Formation of fully reduced farnesol ([7]; 50° C. and pH 5.5): generated a modest amount of H6-FOH
- Reduced products formed from farnesol ([7]; 1 hour 37° C., pH 7.4): H2- and H4-farnesol
- Reduction of FOH to H2-FOH or H4-FOH (in words) ([7]; 1 hr incubation under standard assay conditions): found to reduce FOH
- Specific activity of enzymatic GGR reduction on farnesol (FOH) [7, 9]: 8 (1) nmol terpene units reduced mg^−1 enzyme hr^−1
- Product of complete reduction of farnesol [7, 8]: H6-FOH

B2: Ma1-GGR: geranylgeranyl reductase from Methanosarcina acetivorans #1, InterPro Q8TQQ6 (protein, UniProt Q8TQQ6 1-407, looked up)
Digeranylgeranylglycerophospho …: MKDIYDVLVIGAGPAGSIAAKTAAEKGLDVLLIEKRQEIGDPVRCAEGVNKEYLKKHVEIDNSWICADLKGSRIYSPNGTKVEMAEEISGGEVGYVLERKIFDRALAEHAAKAGAEVRVKTRATGLIIEDDFVKGARLMNLGKEYEVRAKIVIGADGVESKVGRWAGIDTSLKPIDIETCAQYLIAGADIDPEYCEFYIGNEIAPGGYVWIFPKGEGKANVGVGILGNRTGKFKPRPVDYLNNFVEKKFPNAKIVEMVFGGVPVSGSIEKTSVNGLMLVGDAARQSDPITGGGILNAMDAGKIAGEAAYEAISSGDVSLEKLEEVYEKRWRETTGHDIDMSLIVKNCFINLKDEDLDSLADSLKEVKFESMRLFDLLQALFKANKKLLWDLRVLFKDAAKEVMKNRT
- GGPP (C20) reduction [1]: +
- Reduction of GGPP (in words) ([1]; standard assay conditions): found to reduce GGPP
